Reference: patent US20240002531A1 (ONO PHARMACEUTICAL, published 2024)

Key:
Assay in all cases: SPR Biacore, mAb on chip, peptide analyte, 1:1 fit
[1] = target: T1, G603A peptide (HER2 603-622 with G603A) (human)
T1 peptide: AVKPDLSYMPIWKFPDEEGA
Experimental: (§1) Unreacted NHS esters were blocked with ethanolamine. […] All measurements were performed at 25° C. Measurement data were analyzed using a 1:1 binding model of BIAevaluation software (Cytiva) to determine a binding rate constant (ka), a dissociation rate constant (kd), and a dissociation constant (KD). For those in which ka or kd could not be determined, KD was determined using the equilibrium value analysis method of BIAevaluation software (Cytiva).

[2] = target: T2, V604A peptide (HER2 603-622 with V604A) (human)
T2 peptide: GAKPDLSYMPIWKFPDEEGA
Experimental: as §1

[3] = target: T3, K605A peptide (HER2 603-622 with K605A) (human)
T3 peptide: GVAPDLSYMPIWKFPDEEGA
Experimental: as §1

[4] = target: T4, S609A peptide (HER2 603-622 with S609A) (human)
T4 peptide: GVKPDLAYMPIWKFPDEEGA
Experimental: as §1

[5] = target: T5, Y610A peptide (HER2 603-622 with Y610A) (human)
T5 peptide: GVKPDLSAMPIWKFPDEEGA
Experimental: as §1

[6] = target: T6, P612A peptide (HER2 603-622 with P612A) (human)
T6 peptide: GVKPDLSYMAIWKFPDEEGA
Experimental: as §1

[7] = target: T7, P617A peptide (HER2 603-622 with P617A) (human)
T7 peptide: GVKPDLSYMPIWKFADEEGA
Experimental: as §1

[8] = target: T8, E620A peptide (HER2 603-622 with E620A) (human)
T8 peptide: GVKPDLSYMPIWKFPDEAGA
Experimental: as §1

[9] = target: T9, G621A peptide (HER2 603-622 with G621A) (human)
T9 peptide: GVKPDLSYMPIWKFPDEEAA
Experimental: as §1

[10] = target: T10, HER2 peptide p614-619 (human)
T10 peptide: WKFPDE
Experimental: as §1

[11] = target: T11, HER2 peptide p614-622 (human)
T11 peptide: WKFPDEEGA
Experimental: as §1

[12] = target: T12, HER2 peptide p613-619 (human)
T12 peptide: IWKFPDE
Experimental: as §1

[13] = target: T13, HER2 peptide p613-621 (human)
T13 peptide: IWKFPDEEG
Experimental: as §1

[14] = target: T14, HER2 peptide p613-622 (human)
T14 peptide: IWKFPDEEGA
Experimental: as §1

[15] = target: T15, HER2 peptide p612-618 (human)
T15 construct: also called PIWKFPD
T15 peptide: PIWKFPD
Experimental: as §1

[16] = target: T16, HER2 peptide p612-621 (human)
T16 peptide: PIWKFPDEEG
Experimental: as §1

[17] = target: T17, HER2 peptide p612-622 (human)
T17 peptide: PIWKFPDEEGA
Experimental: as §1

[18] = target: T18, HER2 peptide p611-618 (human)
T18 peptide: MPIWKFPD
Experimental: as §1

[19] = target: T19, HER2 peptide p611-619 (human)
T19 peptide: MPIWKFPDE
Experimental: as §1

[20] = target: T20, HER2 peptide p611-620 (human)
T20 peptide: MPIWKFPDEE
Experimental: as §1

[21] = target: T21, HER2 peptide p610-618 (human)
T21 peptide: YMPIWKFPD
Experimental: as §1

[22] = target: T22, HER2 peptide p610-620 (human)
T22 peptide: YMPIWKFPDEE
Experimental: as §1

[23] = target: T23, HER2 peptide p610-622 (human)
T23 peptide: YMPIWKFPDEEGA
Experimental: as §1

[24] = target: T24, HER2 peptide p609-618 (human)
T24 peptide: SYMPIWKFPD
Experimental: as §1

B1: H2Mab-214 antibody (antibody, V domains shown)
VH: QVTLKESGPGILQPSQTLSLTCSFSGFSLSTSGMGVSWIRQPSGKGLEWLAHIFWDDDKRYNPSLKSRLTISKDTSRNKVFLKITSVDTADTATYYCARRVVATDWYFDVWGAGTTVTVSS
VL: DIVLTQSPASLAVSLGQRATISCRASESVEYYGTTLMQWYQQKPGQPPKLLIYAASKVESGVPARFSGSGSGTDFSLNIHPVEEDDVAMYFCQQSRKVPLTFGAGTKLELKR
notes: Mouse monoclonal from a hybridoma (immunogen HER2ec made in LN229 cells); also called antibody of the present invention
- Kd [1]: 16.9 nM
- koff [1]: 0.00564 s⁻¹
- kon [1]: 335000 M⁻¹ s⁻¹
- Kd [2]: 22.7 nM
- koff [2]: 0.00619 s⁻¹
- kon [2]: 273000 M⁻¹ s⁻¹
- Kd [3]: 26.5 nM
- koff [3]: 0.00643 s⁻¹
- kon [3]: 243000 M⁻¹ s⁻¹
- Kd [4]: 33.2 nM
- koff [4]: 0.00659 s⁻¹
- kon [4]: 199000 M⁻¹ s⁻¹
- Kd [5]: 26.7 nM
- koff [5]: 0.00603 s⁻¹
- kon [5]: 226000 M⁻¹ s⁻¹
- Kd [6]: 46.8 nM
- koff [6]: 0.0125 s⁻¹
- kon [6]: 267000 M⁻¹ s⁻¹
- Kd [7]: 43.9 nM
- koff [7]: 0.00716 s⁻¹
- kon [7]: 163000 M⁻¹ s⁻¹
- Kd [8]: 42 nM
- koff [8]: 0.00762 s⁻¹
- kon [8]: 182000 M⁻¹ s⁻¹
- Kd [9]: 20.4 nM
- koff [9]: 0.0059 s⁻¹
- kon [9]: 290000 M⁻¹ s⁻¹

B2: H2Mab-250 antibody (antibody, V domains shown)
VH: EVQLVESGGGLVQPGGSLKLSCAASGFTFSNYGMSWVRQTPDRRLELVATINNNGGGTYYPDSVKGRFTISRDNAKNTLYLQMSSLKSEDTAMYYCTSPGLLWDAWGAGTTVTVSS
VL: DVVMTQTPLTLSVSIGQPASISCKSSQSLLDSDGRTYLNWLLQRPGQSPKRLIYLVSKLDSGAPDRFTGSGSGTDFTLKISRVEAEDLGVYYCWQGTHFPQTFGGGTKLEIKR
notes: as for B1
- Kd [10]: 1380 nM
- koff [10]: 0.00118 s⁻¹
- kon [10]: 854 M⁻¹ s⁻¹
- Kd [11]: 2910 nM
- koff [11]: 0.00145 s⁻¹
- kon [11]: 498 M⁻¹ s⁻¹
- Kd [12]: 10.3 nM
- koff [12]: 0.0041 s⁻¹
- kon [12]: 397000 M⁻¹ s⁻¹
- Kd [13]: 10.5 nM
- koff [13]: 0.00343 s⁻¹
- kon [13]: 325000 M⁻¹ s⁻¹
- Kd [14]: 14 nM
- koff [14]: 0.00346 s⁻¹
- kon [14]: 247000 M⁻¹ s⁻¹
- Kd [15]: 1.92 nM
- koff [15]: 0.00057 s⁻¹
- kon [15]: 296000 M⁻¹ s⁻¹
- Kd [16]: 3.49 nM
- koff [16]: 0.000683 s⁻¹
- kon [16]: 196000 M⁻¹ s⁻¹
- Kd [17]: 3.74 nM
- koff [17]: 0.000724 s⁻¹
- kon [17]: 194000 M⁻¹ s⁻¹
- Kd [18]: 0.869 nM
- koff [18]: 0.00031 s⁻¹
- kon [18]: 356000 M⁻¹ s⁻¹
- Kd [19]: 2.02 nM
- koff [19]: 0.000487 s⁻¹
- kon [19]: 240000 M⁻¹ s⁻¹
- Kd [20]: 2.65 nM
- koff [20]: 0.000387 s⁻¹
- kon [20]: 146000 M⁻¹ s⁻¹
- Kd [21]: 0.599 nM
- koff [21]: 0.000225 s⁻¹
- kon [21]: 376000 M⁻¹ s⁻¹
- Kd [22]: 1.32 nM
- koff [22]: 0.000342 s⁻¹
- kon [22]: 260000 M⁻¹ s⁻¹
- Kd [23]: 1.81 nM
- koff [23]: 0.00033 s⁻¹
- kon [23]: 183000 M⁻¹ s⁻¹
- Kd [24]: 0.803 nM
- koff [24]: 0.00021 s⁻¹
- kon [24]: 262000 M⁻¹ s⁻¹
